# Measurements from article PMC3485042.
# Biological target: IhfAB (integration host factor) (UniProt P0A6X7+P0A6Y1)
# Assay: DNase I footprinting
# Settings: 25 mM Tris-HCl pH 7.5, 50 mM KCl, 6.25 mM MgCl2, 10% glycerol, 1 mM DTT, 30 min room temperature; then 2.5 mM CaCl2 and 5 mM MgCl2 added for DNase I (1 min)
# Sequence of UniProt P0A6X7 (P0A6X7 whole entry, chain 1 of 2): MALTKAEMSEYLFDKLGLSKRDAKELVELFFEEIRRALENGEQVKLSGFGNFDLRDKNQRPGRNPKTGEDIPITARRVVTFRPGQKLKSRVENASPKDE
# Sequence of UniProt P0A6X7 (P0A6Y1 whole entry, chain 2 of 2): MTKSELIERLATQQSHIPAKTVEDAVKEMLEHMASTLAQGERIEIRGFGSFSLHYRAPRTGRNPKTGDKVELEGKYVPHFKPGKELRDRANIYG
sequence,measurement,value
TCTGGTTTGGTTTTGTTTTGCGGGTTAAAAGATCGTTTAAATCAATATTTACAACATAAAAAACTAAATTTAACTTATTGCGTGAAGAGTATTTCCGGGCCGGAAGCATATATCCAGGGGCCCGACAGAAGGGGGAAACAT (double strand) [papB promoter region (141 bp PCR product)],binding,binds
